# Experimental data from publication PMC7368380 (Journal of the American Chemical Society, 2018).
# Tests used:
# [1] = biological target: fluorescein-labeled, wild-type FusA leader peptide (Thermobifida fusca); test: fluorescence polarisation
# [2] = MALDI-TOF MS-based hydrogen-deuterium exchange assay; type: physicochemical; conditions: H-D exchange, MALDI-TOF MS read-out (Fig. S10)
# [3] = solubility; type: physicochemical; conditions: qualitative statement; prevented NMR
# [4] = biological target: T1, carboxypeptidase Y (Saccharomyces cerevisiae, UniProt P00729); test: carboxypeptidase Y digestion; type: in vitro ADME; conditions: carboxypeptidase Y digestion for 18 h; analysis by MS (Fig. S11)
# T1 sequence (P00729 112-532): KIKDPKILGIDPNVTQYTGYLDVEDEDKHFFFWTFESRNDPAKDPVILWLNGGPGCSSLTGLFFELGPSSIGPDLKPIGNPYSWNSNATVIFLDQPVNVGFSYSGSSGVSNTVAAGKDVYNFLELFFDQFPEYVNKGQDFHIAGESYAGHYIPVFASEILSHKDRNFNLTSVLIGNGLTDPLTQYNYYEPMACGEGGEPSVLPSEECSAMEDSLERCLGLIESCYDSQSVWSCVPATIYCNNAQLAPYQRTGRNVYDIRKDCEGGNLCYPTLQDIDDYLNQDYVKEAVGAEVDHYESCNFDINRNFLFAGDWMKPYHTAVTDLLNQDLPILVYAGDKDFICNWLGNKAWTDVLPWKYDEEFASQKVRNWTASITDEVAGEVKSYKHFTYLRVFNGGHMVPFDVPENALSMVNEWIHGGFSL
substance,measurement,setting,value
FusE-D74A (natural protein),fold reduction of affinity against wild-type FusE,[1],8 fold
FusE G31V variant (natural protein),fold reduction of leader peptide binding against wild-type FusE,[1],2 fold
fusilassin,time to full deuteration,[2],~ 60 min
same,solubility characteristics,[3],poor
same,outcome of carboxypeptidase Y digestion,[4],vast majority of the fusilassin peptide remained intact
FusE-L78A (natural protein),fold reduction of affinity against wild-type FusE,[1],10 fold
